Our source for the Kd values is paper PMC6510727 (2019).

One assay addresses transducin α (Tα*) (Bos taurus, UniProt P04695). In words: PDE activation assay fit (membranes).
In a further assay the target is transducin α (Tα-S*) (Bos taurus, UniProt P04695). The assay is described as follows: PDE activation assay fit (solution).
Assay [1] addresses T1, PDE catalytic subunit (PDEcat) (Bos taurus, UniProt P11541).
T1 chain 1: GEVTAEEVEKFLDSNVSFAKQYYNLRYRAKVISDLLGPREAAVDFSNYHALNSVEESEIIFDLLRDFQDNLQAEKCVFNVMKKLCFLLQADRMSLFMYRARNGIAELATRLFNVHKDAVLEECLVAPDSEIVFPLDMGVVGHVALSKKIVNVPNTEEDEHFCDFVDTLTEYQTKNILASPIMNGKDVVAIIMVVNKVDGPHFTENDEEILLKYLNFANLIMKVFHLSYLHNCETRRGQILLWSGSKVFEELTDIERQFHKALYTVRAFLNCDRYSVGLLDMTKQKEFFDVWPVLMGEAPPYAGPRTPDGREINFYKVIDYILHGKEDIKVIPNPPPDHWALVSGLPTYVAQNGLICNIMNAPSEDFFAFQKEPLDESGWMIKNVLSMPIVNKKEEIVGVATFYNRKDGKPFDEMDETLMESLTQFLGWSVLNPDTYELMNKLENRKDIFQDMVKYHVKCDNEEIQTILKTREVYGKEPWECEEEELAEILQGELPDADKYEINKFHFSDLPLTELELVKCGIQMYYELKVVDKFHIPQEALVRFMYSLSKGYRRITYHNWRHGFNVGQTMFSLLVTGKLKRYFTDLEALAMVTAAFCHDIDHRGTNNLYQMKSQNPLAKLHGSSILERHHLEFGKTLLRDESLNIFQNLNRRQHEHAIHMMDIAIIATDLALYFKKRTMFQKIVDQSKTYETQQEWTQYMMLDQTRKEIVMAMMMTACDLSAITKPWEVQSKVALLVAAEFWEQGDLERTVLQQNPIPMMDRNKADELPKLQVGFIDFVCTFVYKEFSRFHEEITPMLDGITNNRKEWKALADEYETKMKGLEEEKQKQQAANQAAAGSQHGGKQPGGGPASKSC
T1 chain 2: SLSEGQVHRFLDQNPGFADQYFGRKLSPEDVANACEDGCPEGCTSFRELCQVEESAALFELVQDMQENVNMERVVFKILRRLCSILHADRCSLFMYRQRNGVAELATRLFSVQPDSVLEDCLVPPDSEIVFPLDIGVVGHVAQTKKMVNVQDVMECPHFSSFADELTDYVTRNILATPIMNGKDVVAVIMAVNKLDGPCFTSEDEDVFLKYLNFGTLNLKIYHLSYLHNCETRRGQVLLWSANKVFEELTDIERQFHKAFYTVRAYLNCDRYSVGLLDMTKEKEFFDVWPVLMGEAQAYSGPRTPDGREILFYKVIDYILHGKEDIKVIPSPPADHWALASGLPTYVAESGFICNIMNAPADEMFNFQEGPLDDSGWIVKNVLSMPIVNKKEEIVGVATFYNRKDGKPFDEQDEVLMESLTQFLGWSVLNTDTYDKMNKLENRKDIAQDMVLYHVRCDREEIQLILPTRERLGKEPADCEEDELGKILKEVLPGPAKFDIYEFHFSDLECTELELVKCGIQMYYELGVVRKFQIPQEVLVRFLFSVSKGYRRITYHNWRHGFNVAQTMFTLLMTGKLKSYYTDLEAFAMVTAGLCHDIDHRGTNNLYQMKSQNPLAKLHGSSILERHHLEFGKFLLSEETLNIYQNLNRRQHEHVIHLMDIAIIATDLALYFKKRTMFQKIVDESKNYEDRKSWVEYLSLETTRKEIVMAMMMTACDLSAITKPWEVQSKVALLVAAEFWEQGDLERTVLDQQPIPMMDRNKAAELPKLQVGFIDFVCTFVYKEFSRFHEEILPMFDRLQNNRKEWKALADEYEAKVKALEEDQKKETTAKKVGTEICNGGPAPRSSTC
In words: PDE activity assay (membranes).

The target in assay [2] is T1, PDE catalytic subunit (PDEcat).

Where two headings read alike, the source gives them in different places.

Chain of transducin α (Tα*) (P04695 2-350): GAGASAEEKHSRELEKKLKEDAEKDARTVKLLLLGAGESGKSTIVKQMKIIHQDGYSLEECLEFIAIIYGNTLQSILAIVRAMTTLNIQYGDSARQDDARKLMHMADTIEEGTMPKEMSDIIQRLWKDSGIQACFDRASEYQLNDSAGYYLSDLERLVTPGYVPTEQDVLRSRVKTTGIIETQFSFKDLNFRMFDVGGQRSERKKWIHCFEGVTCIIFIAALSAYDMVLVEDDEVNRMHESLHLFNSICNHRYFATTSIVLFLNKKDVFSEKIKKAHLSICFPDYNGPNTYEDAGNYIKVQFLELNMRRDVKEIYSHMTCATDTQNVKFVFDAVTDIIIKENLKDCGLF
Chain of transducin α (Tα-S*) (P04695 2-350): as above

B1: PDEγ (protein)
chain: MNLEPPKAEIRSATRVMGGPVTPRKGPPKFKQRQTRQFKSKPPKKGVQGFGDDIPGMEGLGTDITVICPWEAFNHLELHELAQYGII
modifications: activated Tα, membranes
B1 displayed an equilibrium dissociation constant (Kd) with transducin α (Tα*) of 0.0565 nM.

B2: PDEγ (protein)
chain: MNLEPPKAEIRSATRVMGGPVTPRKGPPKFKQRQTRQFKSKPPKKGVQGFGDDIPGMEGLGTDITVICPWEAFNHLELHELAQYGII
modifications: GTPγS-bound Tα
Consider B2, for which binding with transducin α (Tα-S*) was characterised by a dissociation constant (Kd) of 4.5 nM. That is a single-digit nanomolar value.

B3: PDEγ (protein)
chain: MNLEPPKAEIRSATRVMGGPVTPRKGPPKFKQRQTRQFKSKPPKKGVQGFGDDIPGMEGLGTDITVICPWEAFNHLELHELAQYGII
modifications: membranes
Consider B3, for which, in assay [1], the Kd was found to be 0.055 nM.

B4: PDEγ (protein)
chain: MNLEPPKAEIRSATRVMGGPVTPRKGPPKFKQRQTRQFKSKPPKKGVQGFGDDIPGMEGLGTDITVICPWEAFNHLELHELAQYGII
On to B4, for which, in assay [2], the affinity, expressed as Kd, was 0.005 nM.
